Assay results taken from the supplement of paper PMC11246515.
± gives the standard deviation of the averaged measurements.

Experiment: total protein half-life in vivo (active degradation + dilution); higher = more stable protein
[1] = E. coli NCM3722 delta-clpP delta-lon delta-hslV, growth: N-lim chemostat, doubling time 6 h
[2] = E. coli NCM3722 delta-lon, growth: N-lim chemostat, doubling time 6 h
[3] = E. coli NCM3722 delta-smpB, growth: N-lim chemostat, doubling time 6 h
[4] = wild type E. coli NCM3722, growth: C-lim chemostat, doubling time 3 h
[5] = wild type E. coli NCM3722, growth: C-lim chemostat, doubling time 6 h
[6] = wild type E. coli NCM3722, growth: C-lim chemostat, doubling time 12 h
[7] = E. coli NCM3722 delta-clpP, growth: N-lim chemostat, doubling time 6 h
[8] = E. coli NCM3722 delta-hslV, growth: N-lim chemostat, doubling time 6 h
[9] = wild type E. coli NCM3722, growth: N-lim chemostat, doubling time 6 h
[10] = wild type E. coli NCM3722, growth: N-lim chemostat, doubling time 12 h
[11] = wild type E. coli NCM3722, growth: P-lim chemostat, doubling time 6 h
[12] = wild type E. coli NCM3722, growth: P-lim chemostat, doubling time 12 h

## MSQVSLSQQLKEGNLFAEQCPSREVLKHVTSRWGVLILVALREGTHRFSDLRRKIGGVSEKMLAQSLQALEQDGFLNRIAYPVVPPHVEYSLTPLGEQVSEKVAALADWIELNLPEVLAVRDERAA [P0ACN2]
[1]
  total protein half-life in vivo: 4.79 h
[2]
  total protein half-life in vivo: 2.18 h
[3]
  total protein half-life in vivo: 2.12 h
[4]
  total protein half-life in vivo: 2.01 h
[5]
  total protein half-life in vivo: 3.02 ± 0.26 h
[6]
  total protein half-life in vivo: 3.86 h

## MQRRDFLKYSVALGVASALPLWSRAVFAAERPTLPIPDLLTTDARNRIQLTIGAGQSTFGGKTATTWGYNGNLLGPAVKLQRGKAVTVDIYNQLTEETTLHWHGLEVPGEVDGGPQGIIPPGGKRSVTLNVDQPAATCWFHPHQHGKTGRQVAMGLAGLVVIEDDEILKLMLPKQWGIDDVPVIVQDKKFSADGQIDYQLDVMTAAVGWFGDTLLTNGAIYPQHAAPRGWLRLRLLNGCNARSLNFATSDNRPLYVIASDGGLLPEPVKVSELPVLMGERFEVLVEVNDNKPFDLVTLPVSQMGMAIAPFDKPHPVMRIQPIAISASGALPDTLSSLPALPSLEGLTVRKLQLSMDPMLDMMGMQMLMEKYGDQAMAGMDHSQMMGHMGHGNMNHMNHGGKFDFHHANKINGQAFDMNKPMFAAAKGQYERWVISGVGDMMLHPFHIHGTQFRILSENGKPPAAHRAGWKDTVKVEGNVSEVLVKFNHDAPKEHAYMAHCHLLEHEDTGMMLGFTV
[7]
  total protein half-life in vivo: 5.63 ± 0.14 h
[8]
  total protein half-life in vivo: 6.68 ± 0.32 h
[2]
  total protein half-life in vivo: 6.57 ± 0.91 h
[3]
  total protein half-life in vivo: 5.62 ± 0.1 h
[4]
  total protein half-life in vivo: 2.84 ± 0.38 h
[5]
  total protein half-life in vivo: 5.977 ± 0.041 h
[6]
  total protein half-life in vivo: 11.2 ± 1.3 h
[9]
  total protein half-life in vivo: 5.944 ± 0.022 h
[10]
  total protein half-life in vivo: 13.8 ± 1 h
[11]
  total protein half-life in vivo: 5.657 ± 0.043 h
[12]
  total protein half-life in vivo: 14.4 ± 1.6 h

## MADKKLDTQLVNAGRSKKYTLGAVNSVIQRASSLVFDSVEAKKHATRNRANGELFYGRRGTLTHFSLQQAMCELEGGAGCVLFPCGAAAVANSILAFIEQGDHVLMTNTAYEPSQDFCSKILSKLGVTTSWFDPLIGADIVKHLQPNTKIVFLESPGSITMEVHDVPAIVAAVRSVVPDAIIMIDNTWAAGVLFKALDFGIDVSIQAATKYLVGHSDAMIGTAVCNARCWEQLRENAYLMGQMVDADTAYITSRGLRTLGVRLRQHHESSLKVAEWLAEHPQVARVNHPALPGSKGHEFWKRDFTGSSGLFSFVLKKKLNNEELANYLDNFSLFSMAYSWGGYESLILANQPEHIAAIRPQGEIDFSGTLIRLHIGLEDVDDLIADLDAGFARIV
[1]
  total protein half-life in vivo: 4.64 ± 0.42 h
[7]
  total protein half-life in vivo: 4.43 ± 0.49 h
[8]
  total protein half-life in vivo: 3.95 ± 0.2 h
[2]
  total protein half-life in vivo: 6.18 ± 0.7 h
[3]
  total protein half-life in vivo: 4.33 ± 0.2 h
[4]
  total protein half-life in vivo: 3.36 ± 0.33 h
[5]
  total protein half-life in vivo: 4.76 ± 1.1 h
[6]
  total protein half-life in vivo: 9.28 ± 0.72 h
[9]
  total protein half-life in vivo: 4.28 ± 0.085 h
[11]
  total protein half-life in vivo: 6.1 ± 0.46 h
[12]
  total protein half-life in vivo: 12.1 ± 1.6 h

## MAFTPFPPRQPTASARLPLTLMTLDDWALATITGADSEKYMQGQVTADVSQMAEDQHLLAAHCDAKGKMWSNLRLFRDGDGFAWIERRSVREPQLTELKKYAVFSKVTIAPDDERVLLGVAGFQARAALANLFSELPSKEKQVVKEGATTLLWFEHPAERFLIVTDEATANMLTDKLRGEAELNNSQQWLALNIEAGFPVIDAANSGQFIPQATNLQALGGISFKKGCYTGQEMVARAKFRGANKRALWLLAGSASRLPEAGEDLELKMGENWRRTGTVLAAVKLEDGQVVVQVVMNNDMEPDSIFRVRDDANTLHIEPLPYSLEE [P0ADE8]
[1]
  total protein half-life in vivo: 5.041 ± 0.022 h
[7]
  total protein half-life in vivo: 4.7 ± 0.35 h
[8]
  total protein half-life in vivo: 5.202 ± 0.032 h
[2]
  total protein half-life in vivo: 5.31 ± 0.23 h
[3]
  total protein half-life in vivo: 4.327 ± 0.0059 h
[4]
  total protein half-life in vivo: 2.8172 ± 0.0011 h
[5]
  total protein half-life in vivo: 5.45 ± 0.19 h
[6]
  total protein half-life in vivo: 9.03 ± 1.1 h
[9]
  total protein half-life in vivo: 5.25 ± 0.67 h
[10]
  total protein half-life in vivo: 7.936 ± 0.018 h
[11]
  total protein half-life in vivo: 5.54 ± 0.069 h
[12]
  total protein half-life in vivo: 11.3 ± 1.9 h

## MTVNSSRNALKRRTWALFMFFFLPGLLMASWATRTPAIRDILSVSIAEMGGVLFGLSIGSMSGILCSAWLVKRFGTRNVILVTMSCALIGMMILSLALWLTSPLLFAVGLGVFGASFGSAEVAINVEGAAVEREMNKTVLPMMHGFYSLGTLAGAGVGMALTAFGVPATVHILLAALVGIAPIYIAIQAIPDGTGKNAADGTQHGEKGVPFYRDIQLLLIGVVVLAMAFAEGSANDWLPLLMVDGHGFSPTSGSLIYAGFTLGMTVGRFTGGWFIDRYSRVAVVRASALMGALGIGLIIFVDSAWVAGVSVVLWGLGASLGFPLTISAASDTGPDAPTRVSVVATTGYLAFLVGPPLLGYLGEHYGLRSAMLVVLALVILAAIVAKAVAKPDTKTQTAMENS
[7]
  total protein half-life in vivo: 4.21 h
[12]
  total protein half-life in vivo: 7.65 h

## MSVVPVADVLQGRVAVDSEVTVRGWVRTRRDSKAGISFLAVYDGSCFDPVQAVINNSLPNYNEDVLRLTTGCSVIVTGKVVASPGQGQQFEIQASKVEVAGWVEDPDTYPMAAKRHSIEYLREVAHLRPRTNLIGAVARVRHTLAQALHRFFNEQGFFWVSTPLITASDTEGAGEMFRVSTLDLENLPRNDQGKVDFDKDFFGKESFLTVSGQLNGETYACALSKIYTFGPTFRAENSNTSRHLAEFWMLEPEVAFANLNDIAGLAEAMLKYVFKAVLEERADDMKFFAERVDKDAVSRLERFIEADFAQVDYTDAVTILENCGRKFENPVYWGVDLSSEHERYLAEEHFKAPVVVKNYPKDIKAFYMRLNEDGKTVAAMDVLAPGIGEIIGGSQREERLDVLDERMLEMGLNKEDYWWYRDLRRYGTVPHSGFGLGFERLIAYVTGVQNVRDVIPFPRTPRNASF [P0A8M0]
[1]
  total protein half-life in vivo: 5.93 ± 0.36 h
[7]
  total protein half-life in vivo: 5.65 ± 0.14 h
[8]
  total protein half-life in vivo: 5.29 ± 0.32 h
[2]
  total protein half-life in vivo: 6.11 ± 0.23 h
[3]
  total protein half-life in vivo: 5.45 ± 0.33 h
[4]
  total protein half-life in vivo: 3.23 ± 0.51 h
[5]
  total protein half-life in vivo: 6.37 ± 0.33 h
[6]
  total protein half-life in vivo: 11.55 ± 0.055 h
[9]
  total protein half-life in vivo: 5.338 ± 0.0091 h
[10]
  total protein half-life in vivo: 9.553 ± 0.028 h
[11]
  total protein half-life in vivo: 6.83 ± 0.74 h
[12]
  total protein half-life in vivo: 12.9 ± 0.18 h

## MNKYLKYFSGTLVGLMLSTSAFAAAEYAVVLKTLSNPFWVDMKKGIEDEAKTLGVSVDIFASPSEGDFQSQLQLFEDLSNKNYKGIAFAPLSSVNLVMPVARAWKKGIYLVNLDEKIDMDNLKKAGGNVEAFVTTDNVAVGAKGASFIIDKLGAEGGEVAIIEGKAGNASGEARRNGATEAFKKASQIKLVASQPADWDRIKALDVATNVLQRNPNIKAIYCANDTMAMGVAQAVANAGKTGKVLVVGTDGIPEARKMVEAGQMTATVAQNPADIGATGLKLMVDAEKSGKVIPLDKAPEFKLVDSILVTQ
[1]
  total protein half-life in vivo: 4 ± 0.15 h
[7]
  total protein half-life in vivo: 5.04 ± 0.31 h
[8]
  total protein half-life in vivo: 5.783 ± 0.043 h
[2]
  total protein half-life in vivo: 6.64 ± 0.52 h
[3]
  total protein half-life in vivo: 5.82 ± 0.24 h
[4]
  total protein half-life in vivo: 3.15 ± 0.034 h
[5]
  total protein half-life in vivo: 6.52 ± 2 h
[6]
  total protein half-life in vivo: 9.15 ± 0.44 h
[9]
  total protein half-life in vivo: 5.9 ± 0.064 h
[10]
  total protein half-life in vivo: 12.3 ± 0.66 h
[11]
  total protein half-life in vivo: 5.91 ± 0.37 h
[12]
  total protein half-life in vivo: 11.3 ± 0.52 h
